Seven molecules from patent publication US20240132578A1 can be followed below.

Holding throughout (assay): cell-based or functional assay
The target of assay [1] is HIV-1 Env of pseudovirus MGRM-C-26 (HIV-1).
Assay [2] deals with HIV-1 Env of pseudovirus JRCSF (HIV-1) (UniProt P20871).
Assay [3] has as its target HIV-1 Env of pseudovirus 92TH021 (HIV-1).

Several values for one entry are separate records, joined by “and”; a condition that tells them apart may be missing. Equal values may be shown once.

B1: PGT-135 (B cell culture wells 5343_B8 and 5344_E16) (antibody, V domains shown)
VH: QLQMQESGPGLVKPSETLSLSCTVSGDSIRGGEWGDKDYHWGWVRHSAGKGLEWIGSIHWRGTTHYKESLRRRVSMSIDTSRNWFSLRLASVTAADTAVYFCARHRHHDVFMLVPIAGWFDVWGPGVQVTVSS
VL: EIVMTQSPDTLSVSPGETVTLSCRASQNINKNLAWYQYKPGQSPRLVIFETYSKIAAFPARFVASGSGTEFTLTINNMQSEDVAVYYCQQYEEWPRTFGQGTKVDIK
On to B1, for which the Primary Neutralization Index (B cell culture supernatant) in assay [1] is 6.5 and 3.6; in assay [2] it was 1.8 and 1.5.

B2: PGT-125 (B cell culture well 5123_A6) (antibody, V domains shown)
VH: QSQLQESGPRLVEASETLSLTCNVSGESTGACTYFWGWVRQAPGKGLEWIGSLSHCQSFWGSGWTFHNPSLKSRLTISLDTPKNQVFLKLTSLTAADTATYYCARFDGEVLVYNHWPKPAWVDLWGRGIPVTVSS
VL: QSALTQPPSASGSPGQSITISCNGTATNFVSWYQQFPDKAPKLIIFGVDKRPPGVPDRFSGSRSGTTASLTVSRLQTDDEAVYYCGSLVGNWDVIFGGGTTLTVL
In the case of B2, the Polyclonal Transfectant Neutralization Index was found to be 88.3 in assay [1], 119 in assay [2] and 50.6 in assay [3]. In addition, the figures for the Primary Neutralization Index (B cell culture supernatant) in assay [1], in assay [2] and in assay [3] were 512, 1730 and 133, respectively.

B3: PGT-126 (B cell culture well 5141_B17) (antibody, V domains shown)
VH: QPQLQESGPGLVEASETLSLTCTVSGDSTAACDYFWGWVRQPPGKGLEWIGGLSHCAGYYNTGWTYHNPSLKSRLTISLDTPKNQVFLKLNSVTAADTAIYYCARFDGEVLVYHDWPKPAWVDLWGRGTLVTVSS
VL: QSALTQPPSASGSPGQSISISCTGTSNRFVSWYQQHPGKAPKLVIYGVNKRPSGVPDRFSGSKSGNTASLTVSGLQTDDEAVYYCSSLVGNWDVIFGGGTKLTVL
For the molecule B3, the figures for the Polyclonal Transfectant Neutralization Index in assay [1], in assay [2] and in assay [3] were 102, 102 and 2.74, respectively. The results for the Primary Neutralization Index (B cell culture supernatant) in assay [1], in assay [2] and in assay [3] were 654, 1410 and 2.3, respectively.

B4: PGT-128 (B cell culture well 5114_A19) (antibody, V domains shown)
VH: QPQLQESGPTLVEASETLSLTCAVSGDSTAACNSFWGWVRQPPGKGLEWVGSLSHCASYWNRGWTYHNPSLKSRLTLALDTPKNLVFLKLNSVTAADTATYYCARFGGEVLRYTDWPKPAWVDLWGRGTLVTVSS
VL: QSALTQPPSASGSPGQSITISCTGTSNNFVSWYQQHAGKAPKLVIYDVNKRPSGVPDRFSGSKSGNTASLTVSGLQTDDEAVYYCGSLVGNWDVIFGGGTKLTVL
For B4, the Polyclonal Transfectant Neutralization Index in assay [1] was found to be 32.2; in assay [2], 136; in assay [3], 10. Also, the values for the Primary Neutralization Index (B cell culture supernatant) in assay [1], in assay [2] and in assay [3] were 17.1, 77.5 and 6.6, respectively.

B5: PGT-127 (B cell culture well 5145_B14) (antibody, V domains shown)
VH: QPQLQESGPGLVEASETLSLTCTVSGDSTGRCNYFWGWVRQPPGKGLEWIGSLSHCRSYYNTDWTYHNPSLKSRLTISLDTPKNQVFLRLTSVTAADTATYYCARFGGEVLVYRDWPKPAWVDLWGRGTLVVTVS
VL: QSALTQPPSASGSPGQSITISCTGTSNNFVSWYQQYPGKAPKLVIYEVNKRPSGVPDRFSGSKSGSTASLTVSGLQADDEGVYYCSSLVGNWDVIFGGGTKLTVL
For B5, the Polyclonal Transfectant Neutralization Index in assay [1] turned out to be 2.62; in assay [2], 1.61; in assay [3], 0.94. Further, the Primary Neutralization Index (B cell culture supernatant) in assay [1] was determined as 86.9; in assay [2], 31.1; in assay [3] it was 1.

B6: PGT-131 (B cell culture well 5136_H1) (antibody, V domains shown)
VH: QVQLQESGPGLVKPSETLSLTCTVSGDSINTGHHYWGWVRQVPGKGPEWIAHIHYNTAVLHNPALKSRVTISIFTLKNLITLSLSNVTAADTAVYFCVRSGGDILYYIEWQKPHWFYPWGPGILVTVSS
VL: QSALTQPPSASGSLGQSLTISCSGTGSDIGSWNFVSWYQQFPGRAPNLIIFEVNRRRSGVPDRFSGSKSGNTASLTVSGLRSEDEAEYFCSSLSGRWDIVFGGGTKVTVL
Consider B6, for which the Primary Neutralization Index (B cell culture supernatant) in assay [1] was 1.2; in assay [2], 6.2; in assay [3] it was 354.

B7: PGT-130 (B cell culture well 5147_N6) (antibody, V domains shown)
VH: QVQLQESGPGLVKPAETLSLTCSVSGESINTGHYYWGWVRQVPGKGLEWIGHIHYTTAVLHNPSLKSRLTIKIYTLRNQITLRLSNVTAADTAVYHCVRSGGDILYYYEWQKPHWFSPWGPGIHVTVSS
VL: QSALTQPPSASGSLGQSVTISCNGTSSDIGGWNFVSWYQQFPGRAPRLIIFEVNKRPSGVPGRFSGSKSGNSASLTVSGLQSDDEGQYFCSSLFGRWDVVFGGGTKLTVL
B7: the values for the Polyclonal Transfectant Neutralization Index in assay [1], in assay [2] and in assay [3] were 1.05, 1.24 and 4.2, respectively. In addition, the Primary Neutralization Index (B cell culture supernatant) in assay [1] was determined as 3; in assay [2], 19.3; in assay [3] it was 538.
